Test results from patent publication US20130058955A1 (Genentech, published 2013).
Where “and” joins values, the source holds several entries; their conditions need not be identical. Identical values can stand only once.

Tests used:
[1] = target: T1, linear diubiquitin (Boston Biochem) (human, UniProt P0CG48 1-152); test: phage IC50 competition ELISA: Fab-phage with titrated soluble linear diubiquitin, unbound phage caught on coated linear diubiquitin; clone 1E3
T1 construct: Bought product
Procedure: (§1) An initial titer ELISA was done to determine the amount of phage at which a signal of OD₄₅₀=0.5 would be achieved. […] The coated plates were blocked with 200 μL/well of 2.5% milk in PBST for one hour at 25° C. with shaking. Twelve two-fold serial dilutions of the phage were made in 2.5% milk in PBST from OD₂₆₈=4.0 to OD₂₆₈=0.002. After one hour, the blocking buffer was dumped off of the plate and 100 μL/well of each phage dilution was added and incubated at 25° C. for 15 minutes with shaking. The plate was then washed six times with PBST using a plate washer. A 1:5000 dilution of an anti-M13 phage-HRP-conjugated secondary antibody (GE Healthcare) in PBST was used for detection of phage binding. 100 μL/well of the secondary dilution was added and the plate was incubated at 25° C. for 30 minutes with shaking. The plate was then washed 12 times with PBST using a plate washer and twice with PBS manually. Bound secondary antibody was detected using a TMB substrate (KPL) followed by quenching with an equal volume of 1 M phosphoric acid.

[2] = target: T1, linear diubiquitin (Boston Biochem); test: phage IC50 competition ELISA with soluble linear diubiquitin
Procedure: as §1

[3] = target: T1, linear diubiquitin (Boston Biochem); test: as above; remark: listed apart in the source

Row | Binder | IC50 [1] [nM] | IC50 [2] | IC50 [3] [nM]
1 | 1E3, Fab displayed on phage (Fab, V domains shown, Fab on M13 phage (heavy chain fused to gpIII, gD tag on light chain); Fab-zip (bivalent) in the first spot ELISA, monovalent afterwards; also called WT; parental 1E3) VH: EVQLVESGGGLVQPGGSLRLSCAASGFTFSNTYISWVRQAPGKGLEWVASITPSSGSTDYADSVKGRFTISADTSKNTAYLQMNSLRAEDTAVYYCARTWLLRWVMDYWGQGTLVTVSS VL: DIQMTQSPSSLSASVGDRVTITCRASQDVSTAVAWYQQKPGKAPKLLIYSASFLYSGVPSRFSGSGSGTDFTLTISSLQPEDFATYYCQQSYTTPPTFGQGTKVEIK | 80 | 29 nM and 24 nM and 25 nM | –
2 | 1D8.4F5, Fab displayed on phage (Fab, V domains shown, Fab on M13 phage) VH: EVQLVESGGGLVQPGGSLRLSCAASGFTFTDDDIHWVRQAPGKGLEWVAEISPYGGYTDYADSVKGRFTISADTSKNTAYLQMNSLRAEDTAVYYCAREAGSRLLSVMDYWGQGTLVTVSS VL: DIQMTQSPSSLSASVGDRVTITCRASQDVSTAVAWYQQKPGKAPKLLIYSASFLYSGVPSRFSGSGSGTDFTLTISSLQPEDFATYYCQQSFTTPPTFGQGTKVEIK | – | – | ~2000
